Experimental findings from the RNAGym collection of RNA variant scans (doi:10.1073/pnas.2313332121) are described below.

Fewer inactive variants are shown than the library holds.

B1: TPR 5TU (parent)
chain: GGAUCUUCUCGAUCUAACAAAAAAGACAAAUCUGCCACAAAGCUUGAGAGCAUCUUCGGAUGCAGAGGCGGCAGCCUUCGGUGGCGCGAUAGCGCCAACGUUCUCAACUAUGACACGCAAAACGCGUGCUCCGUUGAAUGGAGUUUAUCAUG

This series covers variants of B1. As to the kind of experiment: polymerase ribozyme fitness, log enrichment relative to wild type (log ratio); higher = more active; in vitro selection for triplet polymerase activity. The method in brief: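 Mutant libraries of each subunit of a heterodimeric triplet polymerase ribozyme were built by PCR and transcribed. Each library went through one round of in vitro selection in triplicate: annealing with biotinylated primer, partner subunit and triplets, frozen incubation at −7 °C, gel excision of extended constructs, streptavidin-bead capture and RT-PCR. Input and output libraries were Illumina-sequenced; only genotypes with ≥10 input reads and ≥1 read per output were kept. Fitness is log2(genotype enrichment/wild-type enrichment), using inverse-variance-weighted replicate averages.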
Consider U33G G50A A52C C76U C79U A107G U151A, for which the “polymerase ribozyme fitness (log ratio)” value is not above -4.2. C10U G11U A29C U44G U55A G68A G71U G80A C93A A98U A138C: the “polymerase ribozyme fitness (log ratio)” value is not above -4.2. For G92U C108U C125G G140C the value was not above -4.2; for A12C A19C A122G U146C, -1.62; for C38U A60C U61A C76U C87G C93A G136A G141A, not above -4.2. Then G83A A119C A137G G143A, with -2.54. On to C14A A49C C85A U90G G94U A107G G141U, for which the “polymerase ribozyme fitness (log ratio)” value was not above -4.2.

On to A16G U53G G84U C96G, for which the “polymerase ribozyme fitness (log ratio)” value was -3.88.

As to A29U C32A A41U G71C C85U C87U A98C, the “polymerase ribozyme fitness (log ratio)” value was not above -4.2. For G48U A52U C93A C95U U145A the value was not above -4.2; for G48U A49C C69G G86A C93U U139G A150G, not above -4.2; for C8U A20G, -3.94. On to G25C C93U, for which the “polymerase ribozyme fitness (log ratio)” value was -3.59. Take G42A C43A U82A A98G: the “polymerase ribozyme fitness (log ratio)” value is not above -4.2. Then G59A C116U, with -0.293; and C85U A97U A115U, with -2.7. Then A26U A60G C69A A97U C114U U135C, with not above -4.2; and U9G A21C C35U C85G, with not above -4.2; and G58A G86A A110G A115C U151G, with not above -4.2. For A22G A29U G50A U56G C87U C118U the value was not above -4.2; for A28C C54G C79G C85G U145A, not above -4.2; for G83C A115U A120U, -1.99. On to U82A G124A, for which the “polymerase ribozyme fitness (log ratio)” value amounted to 0.114.

Take A91U C95G C116A G143U A147C: the “polymerase ribozyme fitness (log ratio)” value is not above -4.2. For A41C G46A U90A A150G the value was not above -4.2; for U77C C96A, -2.82; for C5G U53A G94A C125A U139C A142C, not above -4.2.

Consider G46C A52G C63A G71A A110G A113U, for which the “polymerase ribozyme fitness (log ratio)” value is not above -4.2. Take U44G C54U C85G G117U A122U: the “polymerase ribozyme fitness (log ratio)” value is not above -4.2.

On to A91U C118A A142C U144G, for which the “polymerase ribozyme fitness (log ratio)” value was not above -4.2. Then U15G A20C G42U A52G C85U C93G C103A, with not above -4.2; and G48U G50C C85G A98U C99U C149U, with not above -4.2; and C18U A30U G65U G84U C105U, with not above -4.2. For G92A C105A the value was -3.36. Then G74A A106G A122U, with not above -4.2; and A41U C72G U90G C99G G112U C118U, with not above -4.2. Turning to A20C G83U A89U A97U, the “polymerase ribozyme fitness (log ratio)” value is -2.13. Consider C14A C38U, for which the “polymerase ribozyme fitness (log ratio)” value is -1.31. Then G25A U55A, with -2.09; and A24G G25U U31C U55A C87G U102G, with not above -4.2. Then U56A G67C C93U C103A U130A U148C, with not above -4.2; and A37C A52C G84A, with -3.24.

Take A97C A98U U111G: the “polymerase ribozyme fitness (log ratio)” value was -3.78. Take A20U C35U G59C C75U C87U C99U A137U A138U: the “polymerase ribozyme fitness (log ratio)” value is not above -4.2. As for G11A C125U U139G, the “polymerase ribozyme fitness (log ratio)” value was -2.67.

Consider U45G C87U U101C, for which the “polymerase ribozyme fitness (log ratio)” value was -3.99. For C93U G136A the value was -1.1. Regarding G92C A98G A115U, the “polymerase ribozyme fitness (log ratio)” value is -2.44. For C51U C95U U104G U144A the value was -2.33.

Take A20U A23U A64C A91G A107G: the “polymerase ribozyme fitness (log ratio)” value was not above -4.2. For A12C A16U C87G the value was not above -4.2; for U15A A39U C96U C114A A122G C123U C125A, -4.11.

For the variant C93U C123G A138C, the “polymerase ribozyme fitness (log ratio)” value was not above -4.2. Then C57U G83A G88A A89G U134G, with not above -4.2; and A29U C87U A122U U145C, with -3.85; and A24G U61C U82G C95U, with not above -4.2. For the variant A30G G50U C75A U78C G94C, the “polymerase ribozyme fitness (log ratio)” value is not above -4.2. Then C14G G50U C95U C96U A115G, with -4.1; and A19C A21G C57A G58U C72U C85U C103U U134C, with -0.327; and G48C U55A A122U, with 0.121. For U53C C57G C125U G143A, the “polymerase ribozyme fitness (log ratio)” value was -3.67.

A22G C85G A150G: the “polymerase ribozyme fitness (log ratio)” value was -3.09.

With A24U A26C C27G C36G G81A A98G G136U U139G A142C, the “polymerase ribozyme fitness (log ratio)” value was not above -4.2. Take C54G C95G G133A: the “polymerase ribozyme fitness (log ratio)” value was not above -4.2. Then A26C A91G A121C U139C, with not above -4.2; and A16U A29U U45G U61G C93A, with not above -4.2. Take A24U C96A U145A: the “polymerase ribozyme fitness (log ratio)” value came out at 0.748. Take A29U G94U C149G: the “polymerase ribozyme fitness (log ratio)” value is not above -4.2.

Consider A20C C63U G88C C95U, for which the “polymerase ribozyme fitness (log ratio)” value was not above -4.2. Then A20U C57A, with -1.36.

Consider C54U C87U C99U U135C, for which the “polymerase ribozyme fitness (log ratio)” value was -3.26. As for A52G C76U C85G C123A U144G, the “polymerase ribozyme fitness (log ratio)” value was -0.879. For the variant A60G U134G, the “polymerase ribozyme fitness (log ratio)” value was -2.14. For U13G C85A, the “polymerase ribozyme fitness (log ratio)” value is -2.23. Regarding A60G G70C A89C, the “polymerase ribozyme fitness (log ratio)” value is -3.24. For A21U A29U C85U G141C the value was not above -4.2. For U9A A41U A52C G62U C87G A89G C95U C116A A142C U146A A150C the value was not above -4.2; for A21G A73G C85A C103U A122U, -1.86; for A21G G50C G71C C79A C95G A121U U127G G136U U139C A142C U145G, not above -4.2. On to U55A G58A A89C A120U U134C, for which the “polymerase ribozyme fitness (log ratio)” value was 0.161. For G83U C103G A107U the value was not above -4.2; for C54U G81U G83U G152U, -4.17. Turning to C27U U33A G92C, the “polymerase ribozyme fitness (log ratio)” value was -3.92. For C32G U44A G65A C85G the value was not above -4.2.
